US20240325562A1, “INTERNALIZING BINDING MOLECULES” (LinXis B.V., priority 2020, published 2024)

T1: murine PDGFRB ectodomain (mPDGFRB-ECD) (Mus musculus, UniProt P05622)
T1 construct: varied across murine PDGFRB ectodomain (mPDGFRB-ECD), rPDGFRB-ECD and hPDGFRB-ECD
T1 sequence (P05622 32-531 limits assumed): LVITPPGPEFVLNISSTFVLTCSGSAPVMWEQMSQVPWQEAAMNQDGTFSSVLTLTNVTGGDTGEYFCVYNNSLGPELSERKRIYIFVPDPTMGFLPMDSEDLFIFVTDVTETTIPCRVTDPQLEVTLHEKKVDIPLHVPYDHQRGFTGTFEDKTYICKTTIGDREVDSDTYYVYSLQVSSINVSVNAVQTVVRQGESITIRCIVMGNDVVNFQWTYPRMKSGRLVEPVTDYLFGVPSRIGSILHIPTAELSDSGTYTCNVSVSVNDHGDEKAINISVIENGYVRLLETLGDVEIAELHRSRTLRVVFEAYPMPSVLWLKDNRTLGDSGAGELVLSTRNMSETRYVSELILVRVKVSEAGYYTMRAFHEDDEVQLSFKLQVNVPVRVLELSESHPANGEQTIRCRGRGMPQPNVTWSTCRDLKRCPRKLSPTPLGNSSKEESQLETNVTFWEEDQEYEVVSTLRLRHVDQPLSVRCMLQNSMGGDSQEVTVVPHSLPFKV

T2: rPDGFRB-ECD (Rattus norvegicus, UniProt Q05030)
T2 sequence (Q05030 32-531 limits assumed): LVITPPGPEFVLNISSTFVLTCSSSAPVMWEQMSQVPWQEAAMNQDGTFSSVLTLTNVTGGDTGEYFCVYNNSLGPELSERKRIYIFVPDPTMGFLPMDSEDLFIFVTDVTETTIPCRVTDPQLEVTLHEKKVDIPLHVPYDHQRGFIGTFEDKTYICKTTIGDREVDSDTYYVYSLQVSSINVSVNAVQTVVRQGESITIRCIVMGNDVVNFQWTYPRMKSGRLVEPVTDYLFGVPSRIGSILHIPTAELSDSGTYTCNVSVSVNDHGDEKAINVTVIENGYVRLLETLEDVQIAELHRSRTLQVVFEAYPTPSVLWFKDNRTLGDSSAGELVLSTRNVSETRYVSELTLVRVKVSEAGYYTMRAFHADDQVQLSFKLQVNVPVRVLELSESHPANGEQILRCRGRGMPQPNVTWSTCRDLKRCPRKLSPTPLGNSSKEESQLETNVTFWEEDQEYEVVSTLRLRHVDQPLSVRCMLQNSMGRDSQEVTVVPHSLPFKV


Key:
[1] = target: T1, murine PDGFRB ectodomain (mPDGFRB-ECD); assay: Binding assay on murine PDGFRB ectodomain; conditions: IRDye800-conjugated, FIG. 15D
[2] = system: SCC-rPGDFRB cells; assay: Kinetic internalization assay on SCC-rPGDFRB cells; assay type: cell-based; conditions: IRDye800 conjugates, cells expressing rat PDGFRB
Method: (§1) The rate of internalization (endocytic rate constant, ke) of biparatopic constructs 13F11-13E8 and 13E8-13F11 was determined with a kinetic internalization assay on SCC-hIGF2R and SCC-rIGF2R cells. Briefly, 10 nM of IRD800CW conjugated 13F11-13E8 or 13E8-13F11 (conjugation method as described in example 10.2) was added to hIGF2R expressing SCC cells or rIGF2R expressing SCC cells and incubated at 37° C. for different time points up to 12 minutes. Internalization was then purposely halted by putting the cells on ice. Subsequently, cells were washed with cold PBS and the non-internalized VHH construct (bound fraction) was separated from the internalized construct (internalized fraction) using an acid-wash, as described above, after which the fluorescence of both fractions were measured. Both constructs internalize with similar endocytic rate constants in SCC-hIGF2R cells (ke around 1.5 min-1) and in SCC-rIGF2R cells (ke around 0.7 min-1) (FIGS. 17A and B, respectively).
To confirm improved internalization of biparatopic VHH constructs compared to the monomeric individual VHH components, kinetic internalization assays were performed using SCC-rPGDFRB and on SCC-hPDGFRB cells, using a similar method as described for the IGF2R constructs in example 11.1. […]

[3] = system: SCC-hPDGFRB cells; assay: Kinetic internalization assay on SCC-hPDGFRB cells; assay type: cell-based, human
Method: as §1
To determine the rate of internalization of the VHH construct SP02P-SP26P, kinetic internalization assays on hPDGFRB expressing SCC cells and LX-2 cells were performed using a similar method as described for the IGF2R constructs in example 11.1. […]

[4] = target: hPDGFRB-ECD (Homo sapiens, UniProt P09619); assay: Binding assay on hPDGFRB-ECD; conditions: IRDye800-conjugated, FIG. 15D
Method: The 15 unique hIGF2R-binding VHH (Example 2.1, FIG. 2) were produced and purified as described in examples 3 and 4. The apparent affinities were determined through binding assay on immobilized hIGF2R-ECD. Briefly, three-fold serial dilution series, starting from 1 μM, of each VHH were plated onto hIGF2R-ECD coated plates. VHH were allowed to bind for two hours after which plates were washed. Then, bound VHH was detected using a VHH-specific IgG antibody, followed by an IRD800CW-conjugated IgG-specific antibody. Plates were read out by fluorimetry.
(§2) The 18 unique hPDGFRB binders from libraries 1 and 2, and the 11 unique rPDGFRB binders from libraries 3 and 4 (Example 2.2, FIGS. 5 and 6) were produced and purified as described in examples 3 and 4. Then, the apparent affinities were determined with binding assays on hPDGFRB-ECD and rPDGFRB-ECD, respectively, the setup described in example 5.1. Results are summarized in FIGS. 5 and 6 for the hPDGFRB and rPDGFRB VHHs, respectively.
Based on their high affinity and binding to non-overlapping hPDGRB epitopes, various biparatopic constructs were prepared based on VHHs SP02P, SP12P SP14P, SP26P and SP28P. The constructs were produced as described in example 7.1. and subjected to binding assay.
As Shown in FIG. 15C), the binding affinity of this construct for both hPDGFRB and rPDGFRB are below 5 nM. […]

[5] = target: T2, rPDGFRB-ECD; assay: Binding assay on rPDGFRB-ECD; conditions: IRDye800-conjugated, FIG. 15D
Method: as §2
As Shown in FIG. 15C), the binding affinity of this construct for both hPDGFRB and rPDGFRB are below 5 nM. […] These observations make SP02P (or similar VHH) and SP26P (or similar VHH) particularly promising for use in the present invention.

[6] = system: LX-2 cells; assay: Kinetic internalization assay on LX-2 cells; assay type: cell-based, human; conditions: FIG. 19 right panel
Method: as §1
To determine the rate of internalization of the VHH construct SP02P-SP26P, kinetic internalization assays on hPDGFRB expressing SCC cells and LX-2 cells were performed using a similar method as described for the IGF2R constructs in example 11.1.

[7] = Biodistribution by whole-body PET of 89Zr-labelled constructs; assay type: in vivo; conditions: 89Zr-desferral labelled, i.v., rats
Method: (§3) The in vivo pharmacokinetic properties of 13F11-13E8-ABD (F11E8-ABD; with ABD) and 13F11-13E8 (F11E8; without ABD) were compared in healthy Sprague-Dawley rats. In brief, rats were dosed intravenously with approximately 3 mg/kg body weight and blood samples were taken at different time points and the concentration of the VHH constructs were determined using an ELISA on immobilized hIGF2R-ECD. […] To further confirm the functionality of the ABD, biodistribution of F11E8-ABD and F11E8 were assessed by means of Positron Emission Tomography (PET). In brief, the constructs were radio-labelled with the positron emitter ^89Zr-desferral according to Verel et al (J Nucl Med. 2003; 44:1271-1281), and administered intravenously to rats after which biodistribution was assessed on subsequent time points by whole-body PET.

[8] = system: SCC-hIGF2R cells; assay: Kinetic internalization assay on SCC-hIGF2R cells; assay type: cell-based, human
Method: as §1
(§4) Internalization of 13F11-13E8 and the corresponding monomeric VHHs 13F11 and 13E8 was assessed in a similar assay (FIG. 17A-C).

[9] = system: LX2 cells (an activated hepatic stellate cell line); assay: Live imaging of internalization with pHrodo-red conjugates in LX2 cells; assay type: cell-based, human; conditions: 50 nM pHrodo-red conjugate
From the text: Internalization of monovalent 13F11 and biparatopics 13F11-13E8 and 13E8-13F11 was finally assessed in LX2 cells (an activated hepatic stellate cell line). For live imaging of internalization, the pH dependent Phrodo probe was used (ThermoFisher Scientific). This pH dependent probe becomes more fluorescent at acidic pH. Endosomes and lysosomes have a pH maintained at 6.5 and 4.5, respectively, compared to cytoplasmic pH of 7.0, and thus internalization of a VHH-pHrodo construct can be visualized when it internalizes via the endosomal pathway. LX-2 cells were incubated at 37° C. for 2 hours with 50 nM of pHrodo-red conjugated 13F11, 13F11-13E8 and 13E8-13F11 (conjugation method as described in example 10.2). Images were taken at 5 min. intervals using a wide-field PEXScope microscope (Nikon) with a mCherry filter and 40× oil objective.

[10] = system: SCC-rIGF2R cells; assay: Kinetic internalization assay on SCC-rIGF2R cells; assay type: cell-based, rat
Method: as §1, §4

[11] = system: NIH 3T3 2.2 cells that were transiently transfected with hIGF2R; assay: Internalization by fluorescence microscopy after acid wash, hIGF2R-transfected NIH 3T3 2.2 cells; assay type: cell-based, human; conditions: 25 nM Alexa fluor 647 conjugate
Method: (§5) First, Alexa fluor 647-conjugates of the VHH 13F11 and the biparatopic VHH construct […] were added to A549 cells that endogenously express hIGF2R (FIG. 16A), NIH 3T3 2.2 cells that were transiently transfected with hIGF2R (FIG. 16B), or mock transfected NIH 3T3 2.2 cells (as a negative control). For this, the cells were incubated with 25 nM of the VHH or the VHH construct. Before fluorescent microscopy readout, to ensure that only signal of internalized VHH or mouse anti-IGF2R was present, an acid wash (0.2M glycine-HCl, 150 mM NaCl, pH 2.3) was used to remove VHH or mouse anti-IGF2R bound to the target receptors on the cell surface. The efficiency of the acid wash procedure was verified by incubating the hIGF2R transfected NIH 3T3 2.2 cells with 13F11-13E8-A647 on ice and subsequently treating these cells with an acid wash while remaining on ice to prevent internalization (FIG. 16D). […] Summarizing, biparatopic 13F11-13E8 clearly internalizes in cells expressing hIGF2R on the cell surface.

[12] = In vivo pharmacokinetics in rats, serum ELISA on hIGF2R-ECD; set-up: species or system Sprague-Dawley rats; conditions: rats, i.v., approximately 3 mg/kg; ELISA LOD approximately 20 nM
Method: as §3

[13] = system: A549 cells that endogenously express hIGF2R; assay: Internalization by fluorescence microscopy after acid wash, A549 cells; assay type: cell-based, human; conditions: 25 nM Alexa fluor 647 conjugate
Method: as §5

[14] = system: SCC cells expressing mIGF2R; assay: Kinetic internalization assay on SCC cells expressing mIGF2R; assay type: cell-based, murine; conditions: IRDye800 conjugates, FIG. 17C left panel
Method: as §1, §4

[15] = system: mock transfected NIH 3T3 2.2 cells; assay: Internalization by fluorescence microscopy after acid wash, mock transfected cells; assay type: cell-based; conditions: 25 nM Alexa fluor 647 conjugate, negative control cells
Method: as §5

[16] = 10 nM IRD800CW conjugate, 37° C., up to 12 minutes

Chain of hPDGFRB-ECD (P09619 33-532 limits assumed): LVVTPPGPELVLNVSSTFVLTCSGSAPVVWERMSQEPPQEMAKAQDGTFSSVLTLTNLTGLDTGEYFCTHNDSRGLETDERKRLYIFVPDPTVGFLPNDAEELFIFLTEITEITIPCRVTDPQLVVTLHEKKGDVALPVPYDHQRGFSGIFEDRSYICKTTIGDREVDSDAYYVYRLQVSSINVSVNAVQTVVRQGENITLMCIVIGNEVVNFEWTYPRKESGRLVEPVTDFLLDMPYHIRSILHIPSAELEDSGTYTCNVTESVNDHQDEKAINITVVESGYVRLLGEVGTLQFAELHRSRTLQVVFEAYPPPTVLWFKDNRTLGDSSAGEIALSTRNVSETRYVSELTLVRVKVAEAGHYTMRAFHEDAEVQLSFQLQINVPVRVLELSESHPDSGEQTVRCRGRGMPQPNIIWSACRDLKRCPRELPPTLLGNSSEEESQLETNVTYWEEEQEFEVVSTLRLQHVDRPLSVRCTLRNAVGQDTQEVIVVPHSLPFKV

Row | affinity for mPDGFRB-ECD [1] | affinity for hPDGFRB-ECD [4] | affinity for rPDGFRB-ECD [5] | Molecule | internalization rate compared to monomeric VHH SP02 and SP26 [2] | internalization ([3]; FIG. 19 left panel) | internalization rate compared to monomeric VHH SP02 and SP26 ([3]; IRDye800 conjugates, cells expressing human PDGFRB) | internalization [6] | biodistribution (PET) [7] | endocytic rate constant, ke [8, 16] | internalization compared to the monomeric VHHs ([8]; IRDye800 conjugates, FIG. 17C right panel) | intracellular localisation of internalized construct [9] | increase in intracellular fluorescence (internalization) ([9]; 37° C., compared to monovalent 13F11 / between biparatopics) | endocytic rate constant, ke [10, 16] | internalization compared to the monomeric VHHs ([10]; IRDye800 conjugates, FIG. 17C middle panel) | internalization [11] | clearance from circulation / detectability in serum [12] | internalization [13] | internalization compared to the monomeric VHHs [14] | internalization [15]
1 | high affinity | high affinity | high affinity | SP02P-SP26P: biparatopic PDGFRB VHH construct combining SP02P and SP26P (protein, left off: small tags and cut ends) EVQLVESGGGLVQAGGSLRLSCAASESISSIEQMGWFRQAPGKQRALVAINTYGGRTVYTNSVEGRFTMSRDSAKNMVYLQMTSLEPEDTAVYYCYAQTTAWRGGVWGQGTQVTVSSGGGGSGGGGSGGGGSEVQLVESGGGLVQAGGSLRLSCAASGRSFSSSVMGWFRQTPGKEREFVAATRWTAASTHYADSVKGRFTISRDHAENAVFLQMNSLKPEDTAVYYCAAGNYLDTAQYRYNYWGQGTQVTVSS | 5-10 fold | observed | 5-10 fold | observed |  |  |  |  |  |  |  |  |  |  |  | 
2 |  |  |  | 13F11-13E8: biparatopic IGF2R VHH construct, 13F11 and 13E8 fused with (Gly-Gly-Gly-Gly-Ser)3 linker, C-terminal cysteine (protein, left off: small tags and cut ends, biparatopic IGF2R VHH construct, 13F11 and 13E8 fused with (Gly-Gly-Gly-Gly-Ser)3 linker, C-terminal cysteine) EVQLVESGGRLVQPGDSLRLSCAASGRTFSDNAMGWFRQAPGKERRFVAGISWAGGSTYYSDSVKGRFTISRDNAKNTVYLQMNSLKPEDTAVYYCAAGLRAWVQRMPKDYNYWGQGTQVTVSSGGGGSGGGGSGGGGSEVQLVESGGGLVQAGGSLRLSCAASRSISPMGWYRQAPGKQRELVAIMPSSGPPIYADSVQGRFTISRDNAKNTVYLQMNSLKPEDTAVYYCNVGGGYWGQGTQVTVSS |  |  |  |  | swiftly accumulated in the kidneys | around 1.5 min-1 | superior internalization | accumulate into perinuclear compartments (endosomes/lysosomes) | higher rate of internalization | around 0.7 min-1 | superior internalization | superior internalization | could not be detected anymore within two hours after injection | clearly internalized | superior internalization | no internalization was observed
